# Assay results as given in article PMC5764952 (2018).
# B1: Untagged murine saposin A (SapA) [mouse] / His6-tagged murine β-galactocerebrosidase (GALC) [modified: glycosylated; glycosylated] [mouse] (parent)
# chain 1: MGKSLPCDICKTVVTEAGNLLKDNATQEEILHYLEKTCEWIHDSSLSASCKEVVDSYLPVILDMIKGEMSNPGEVCSALNLCQSLQE
# chain 2: YVLDDSDGLGREFDGIGAVSGGGATSRLLVNYPEPYRSEILDYLFKPNFGASLHILKVEIGGDGQTTDGTEPSHMHYELDENYFRGYEWWLMKEAKKRNPDIILMGLPWSFPGWLGKGFSWPYVNLQLTAYYVVRWILGAKHYHDLDIDYIGIWNERPFDANYIKELRKMLDYQGLQRVRIIASDNLWEPISSSLLLDQELWKVVDVIGAHYPGTYTVWNAKMSGKKLWSSEDFSTINSNVGAGCWSRILNQNYINGNMTSTIAWNLVASYYEELPYGRSGLMTAQEPWSGHYVVASPIWVSAHTTQFTQPGWYYLKTVGHLEKGGSYVALTDGLGNLTIIIETMSHQHSMCIRPYLPYYNVSHQLATFTLKGSLREIQELQVWYTKLGTPQQRLHFKQLDTLWLLDGSGSFTLELEEDEIFTLTTLTTGRKGSYPPPPSSKPFPTNYKDDFNVEYPLFSEAPNFADQTGVFEYYMNNEDREHRFTLRQVLNQRPITWAADASSTISVIGDHHWTNMTVQCDVYIETPRSGGVFIAGRVNKGGILIRSATGVFFWIFANGSYRVTADLGGWITYASGHADVTAKRWYTLTLGIKGYFAFGMLNGTILWKNVRVKYPGHGWAAIGTHTFEFAQFDNFRVEAAR
# Variants of: B1
# Experiment: pull-down (immobilised GALC, Coomassie SDS-PAGE, quantified)
# Conditions: with His6-tagged murine β-galactocerebrosidase (GALC) [modified: glycosylated, in the presence of Tween-20, n = 3, read off a plot
row,ratio to parent,Variant
1,1.3,chain 1 MGKSLPCDICKTVVTEAGNLLKDYATQEEILHYLEKTCEWIHDSSLSASCKEVVDSYLPVILDMIKGEMSNPGEVCSALNLCQSLQE [chain 1 N24Y]
